Reference: paper PMC8907193 (2022)
Positions count from the first letter of the chain named. Names may count otherwise.

B1: PA26^YF (other)
chain: PPKRAALIQNLRDSYTETSSFAVIEEWAAGTLQEIEGIAKAAAEAHGVIRNSTYGRAQAEKSPEQLLGVLQRYQDLCHNVYCQAETIRTVIAIRIPEHKEADNLGVAVQHAVLKIIDELEIKTLGSGEKSGSGGAPTPIGMYALREYLSARSTVEDKLLGSVDAESGKTKGGSQSPSLLLELRQIDADFMLKVELATTHLSTMVRAVINAYLLNWKKLIQPRTGNLSYFT
B2: PA26^E102A-Opt5 (other)
chain: B1 chain with F229Y
B3: wild-type PA26 (T. brucei) (natural protein)
chain: B1 chain with A101E, N225S, L226D, S227H, Y228M, F229V, T230S

Key:
[1] = target: T1, biotinylated human 20S proteasome (human, UniProt P60900 1-246; P25787 1-234; P25789 1-261; O14818 1-248; P28066 1-241; P25786 …); experiment: BLI
[2] = target: T1, biotinylated human 20S proteasome; experiment: BLI; remark: listed apart in the source

Row | Binder | Kd [1] [nM] | koff [2] [s⁻¹]
1 | B1 | 0.22 | 0.00026
2 | B2 |  | 0.00016
3 | B3 | 0.1 | 0.00029
